This data set deals with the molecule itself. Briefly: SEC.

B1: Spa47 E267A (enzyme)
chain: MSYTKLLTQLSFPNRISGPILETSLSDVSIGEICNIQAGIESNEIVARAQVVGFHDEKTILSLIGNSRGLSRQTLIKPTAQFLHTQVGRGLLGAVVNPLGEVTDKFAVTDNSEILYRPVDNAPPLYSERAAIEKPFLTGIKVIDSLLTCGEGQRMGIFASAGCGKTFLMNMLIEHSGADIYVIGLIGERGREVTETVDYLKNSEKKSRCVLVYATSDYSSVDRCNAAYIATAIAEFFRTEGHKVALFIDSLTRYARALRDVALAAGASPARRGYPVSVFDSLPRLLERPGKLKAGGSITAFYTVLLEDDDFADPLAEEVRSILDGHIYLSRNLAQKGQFPAIDSLKSISRVFTQVVDEKHRIMAAAFRELLSEIEELRTIIDFGEYKPGENASQDKIYNKISVVESFLKQDYRLGFTYEQTMELIGETIR
Consider B1, for which the binding result is listed as “binds”.

B2: Spa47 E267R (enzyme)
chain: MSYTKLLTQLSFPNRISGPILETSLSDVSIGEICNIQAGIESNEIVARAQVVGFHDEKTILSLIGNSRGLSRQTLIKPTAQFLHTQVGRGLLGAVVNPLGEVTDKFAVTDNSEILYRPVDNAPPLYSERAAIEKPFLTGIKVIDSLLTCGEGQRMGIFASAGCGKTFLMNMLIEHSGADIYVIGLIGERGREVTETVDYLKNSEKKSRCVLVYATSDYSSVDRCNAAYIATAIAEFFRTEGHKVALFIDSLTRYARALRDVALAAGRSPARRGYPVSVFDSLPRLLERPGKLKAGGSITAFYTVLLEDDDFADPLAEEVRSILDGHIYLSRNLAQKGQFPAIDSLKSISRVFTQVVDEKHRIMAAAFRELLSEIEELRTIIDFGEYKPGENASQDKIYNKISVVESFLKQDYRLGFTYEQTMELIGETIR
As to B2, the binding result is “binds”.
